Measurements published in US20220243196.

Tests used:
[1] = system: Hantavirus (serum containing virus; nuclear protein) (Hantavirus); assay: ELONA
[2] = system: Influenza A virus (serum containing virus) (Influenza A virus); assay: ELONA

## ATCCAGAGTGACGCAGCACACATCGGAGAACAGGCGCACTGTCGGAGGAACCGCAACGTGGACACGGTGGCTTAGT [biotin-aptamer 3]
[1]
  binding signal (a.u. absorbance): 0.1
[2]
  binding signal (a.u. absorbance): 0.1
